In patent US20070117180:

Chain of PACE4 (Plasminogen Angiostatin Converting Enzyme of pH 4) (chain, as listed by the source): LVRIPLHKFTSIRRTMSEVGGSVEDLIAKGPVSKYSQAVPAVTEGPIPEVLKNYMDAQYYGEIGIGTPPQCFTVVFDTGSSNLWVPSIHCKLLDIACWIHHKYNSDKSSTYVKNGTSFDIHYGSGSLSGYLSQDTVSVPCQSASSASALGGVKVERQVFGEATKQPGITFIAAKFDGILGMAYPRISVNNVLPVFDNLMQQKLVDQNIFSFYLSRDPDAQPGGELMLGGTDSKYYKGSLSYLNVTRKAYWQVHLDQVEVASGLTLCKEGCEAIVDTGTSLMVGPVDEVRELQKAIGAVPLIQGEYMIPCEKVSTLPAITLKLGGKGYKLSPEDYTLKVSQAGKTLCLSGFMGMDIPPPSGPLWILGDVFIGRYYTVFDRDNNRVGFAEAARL
Chain of plasminogen (Glu-1) (chain, as listed by the source): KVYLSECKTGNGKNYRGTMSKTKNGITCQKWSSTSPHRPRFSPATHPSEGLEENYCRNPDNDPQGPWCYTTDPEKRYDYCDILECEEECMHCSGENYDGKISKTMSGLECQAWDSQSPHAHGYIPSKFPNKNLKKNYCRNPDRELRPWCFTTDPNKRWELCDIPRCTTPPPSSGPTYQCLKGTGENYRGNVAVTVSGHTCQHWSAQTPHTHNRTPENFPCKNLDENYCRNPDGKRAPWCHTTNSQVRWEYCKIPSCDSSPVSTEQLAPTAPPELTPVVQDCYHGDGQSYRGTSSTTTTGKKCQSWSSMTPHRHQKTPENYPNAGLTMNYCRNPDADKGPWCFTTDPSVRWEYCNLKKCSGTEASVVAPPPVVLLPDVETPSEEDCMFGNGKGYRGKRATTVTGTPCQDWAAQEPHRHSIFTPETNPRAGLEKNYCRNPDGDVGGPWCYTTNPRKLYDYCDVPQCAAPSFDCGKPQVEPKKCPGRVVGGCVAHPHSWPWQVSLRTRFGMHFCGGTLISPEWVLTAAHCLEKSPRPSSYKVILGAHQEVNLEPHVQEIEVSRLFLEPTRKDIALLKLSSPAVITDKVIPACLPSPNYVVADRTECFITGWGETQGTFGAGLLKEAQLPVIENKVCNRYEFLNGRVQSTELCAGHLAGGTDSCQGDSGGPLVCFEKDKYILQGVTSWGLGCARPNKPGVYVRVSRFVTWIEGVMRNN

“PACE4 (Plasminogen Angiostatin Converting Enzyme of pH 4)” was tested. Which “fragmentation of plasminogen (SDS-PAGE) at neutral and acidic pH” value (plasminogen (Glu-1)) did it give?
Its value is “the enzyme of the present invention fragments plasminogen only at an acidic range of pH”.

And the “degradation of fibronectin by the enzyme” value (fibronectin)?
The value was “Fibronectin was degraded restrictedly with this enzyme”.
